Biological target: the molecule itself
Assay: crystal structure

B1: Human TRAAK A198E, crystallisation construct (C-terminally truncated, N104Q/N108Q) (domain or fragment)
chain: MTTAPQEPPARPLQAGSGAGPAPGRAMRSTTLLALLALVLLYLVSGALVFRALEQPHEQQAQRELGEVREKFLRAHPCVSDQELGLLIKEVADALGGGADPETQSTSQSSHSAWDLGSAFFFSGTIITTIGYGNVALRTDAGRLFCIFYALVGIPLFGILLAGVGDRLGSSLRHGIGHIEAIFLKWHVPPELVRVLSEMLFLLIGCLLFVLTPTFVFCYMEDWSKLEAIYFVIVTLTTVGFGDYVAGADPRQDSPAYQPLVWFWILLGLAYFASVLTTIGNWLRVVSRRTRAEMGGLTAQSNSLEVLFQ
- stoichiometry N: 2
